Data set [1] concerns the molecule itself. Briefly: SDS-PAGE and western blot, self-association (dimer). An excerpt: To get further insight in the structure of SAN, vectors were constructed encoding C-terminally (SAN2, 4 and 6 carrying the first 159, 149 and 113 amino acids) or N-terminally truncated peptides (SAN7, 3 and 5 comprising the last 177, 151 and 141 amino acids). The truncated His-tagged genes were expressed in E. coli and the peptides SAN2, SAN4, SAN6 and SAN7 were purified by affinity chromatography. The peptides SAN3 and SAN5 were produced at very low levels and could not be purified probably due to increased sensitivity to E. coli proteases.
Three DNA fragments encoding C-terminally truncated SAN peptides were amplified by PCR with pBK1 (Boot et al., 1993) as template. Primer CEA1 (5′-[…]-3′, forward: SEQ ID NO. 26) was used in combination with primer SANA1 (5′-[…]-[…]-3′, reverse: SEQ ID NO. 27) to amplify SAN2, SANA2 (5′-[…]-3′, reverse: SEQ ID NO. 28) for SAN4 and SANA3 (5′-[…]-3′, reverse: SEQ ID NO. 29) for SAN6. Fragments encoding three N-terminally truncated peptides were amplified using primer SANB1 (5′-[…]-[…]-3′: SEQ ID NO. 30) for SAN3, SANB2 (5′-[…]-TT-[…]-3′: SEQ ID NO. 31) for SAN5 and SANB3 (5′-GGGGGG-[…]-3′: SEQ ID NO. 32) for SAN7, all three in combination with primer SAN1 (5′[…]-[…]-3′, reverse: SEQ ID NO. 33) and the same template. The fragments were cloned in pGEM-T and sequenced. The fragments encoding SAN2, SAN3, SAN4, SAN5, SAN6 and SAN7 were excised as BamHI-HindIII fragments and introduced in vector pQE30ΔXN (Smit et al., 2001) in frame with an N-terminal six histidine tag. Expression of gene fragments and purification of the gene products was performed as described previously (Smit et al., 2001).
A general note: A western blot detects proteins with antibodies after separation by electrophoresis.

Data set [2] concerns the molecule itself. In words: SDS-PAGE and western blot, self-association.

These results are taken from patent publication US20100172938A1 (NEDERLANDSE ORGANISATIE VOOR TOEGEPAST …, published 2010).

B1: SAN4, C-terminally truncated SAN peptide carrying the first 149 amino acids, His-tagged (other)
chain: RGSHHHHHHGSGTATTINASSSAINTNTNAKYDVDVTPSVSAVAANTANNTPAIAGNLTGTISASYNGKTYTANLKADTENATITAAGSTTAVKPAELAAGVAYTVTVNDVSFNFGSENAGKTVTLGSANSNVKFTGTNSDNQTETNVSTLKVKLDQNGVAS
For B1, the binding result in data set [1] is “binds”.

B2: SAN2, C-terminally truncated SAN peptide carrying the first 159 amino acids, His-tagged (other)
chain: RGSHHHHHHGSGTATTINASSSAINTNTNAKYDVDVTPSVSAVAANTANNTPAIAGNLTGTISASYNGKTYTANLKADTENATITAAGSTTAVKPAELAAGVAYTVTVNDVSFNFGSENAGKTVTLGSANSNVKFTGTNSDNQTETNVSTLKVKLDQNGVASLTNVSIANVY
For B2, in data set [1], the binding result was “binds”.

B3: SAN7, N-terminally truncated SAN peptide, His-tagged (other)
chain: RGSHHHHHHGSGTSANSNVKFTGTNSDNQTETNVSTLKVKLDQNGVASLTNVSIANVYAINTTDNSNVNFYDVTSGATVTNGAVSVNADNQGQVNVANVVAAINSKYFAAQYADKKLNTRTANTEDAIKAALKDQKIDVNSVGYFKAPHTFTVNVKATSNTNGKSATLPVVVTVPNVAEPTVASVSKRI
Take B3: in data set [1], the binding result was “binds”.

B4: SAN, crystallisation domain of SA-protein (amino acids 1-290), His-tagged (other)
chain: ATTINASSSAINTNTNAKYDVDVTPSVSAVAANTANNTPAIAGNLTGTISASYNGKTYTANLKADTENATITAAGSTTAVKPAELAAGVAYTVTVNDVSFNFGSENAGKTVTLGSANSNVKFTGTNSDNQTETNVSTLKVKLDQNGVASLTNVSIANVYAINTTDNSNVNFYDVTSGATVTNGAVSVNADNQGQVNVANVVAAINSKYFAAQYADKKLNTRTANTEDAIKAALKDQKIDVNSVGYFKAPHTFTVNVKATSNTNGKSATLPVVVTVPNVAEPTVASVSKRI
notes: Construct from Smit et al. 2001; not shown: His-tag (detected with anti-his antibody)
As for B4, the binding result in data set [2] was “binds”.

B5: SAN6, C-terminally truncated SAN peptide, His-tagged (other)
chain: RGSHHHHHHGSGTATTINASSSAINTNTNAKYDVDVTPSVSAVAANTANNTPAIAGNLTGTISASYNGKTYTANLKADTENATITAAGSTTAVKPAELAAGVAYTVTVNDVSFNFGSENAGKTVTLG
B5: the binding result in data set [1] is “binds”.
